In patent US20030044400A1, “Composition and method for treating cells” (priority 2001, published 2003):

Assays:
all the cell lines = assay: Zn or Ba alone on the cell lines; type: cell-based; details: all concentrations tested (up to 66 uM)
Experimental: (§1) Fetuin purified by modified Spiro method was further incubated with Zinc Acetate or Barium Acetate (0.25M) at room temperature for 1 hr. Free ions were removed by repetitive concentration against 20 volumes of PBS three times. Fetuin, Zn-charged fetuin and Ba-charged fetuin (5 uM) and PBS were then separately incubated with LNCaP cells for 4 hr. Percent of cells under apoptosis was determined by Hoechst staining and confirmed by MTS assay. Each data represents the average of two assays. Zn-charged or Ba-charged fetuin may contain free Zn or Ba (about 30 uM). However, all the cell lines are not affected by Zn or Ba alone at all concentrations tested (up to 66 uM).

LNCaP cells = assay: Fetuin-induced apoptosis, Hoechst staining confirmed by MTS assay; type: cell-based, Human; details: for apoptosis-inducing activity in LNCaP cells: fetal vs mature fetuins at the same concentration
Experimental: The purified fetuin was tested on various cancer cell lines. […] The DNA condensation and breakage of nuclei which are the characteristics for apoptosis were observed by staining the cell with Hoechst dye at 0.1 ug/ml.
as §1
Various concentrations of Zn-charged fetuin prepared as described were incubated with cell lines for 6 hr. Percent of cell under apoptosis was determined by Hoechst staining and confirmed by MTS assay. The concentration of Zn-charged fetuin for the induction of 50% of cells under apoptosis (LD50) was determined. Each data represents the average of three assays.

Q: CC(=O)[O-].CC(=O)[O-].[Zn+2] [Zn] was tested. Which “effect of free ion alone on the cell lines” value (all the cell lines) did it give?
A: The value was “not affected”.

Q: Which “effect of free ion alone on the cell lines” value (all the cell lines) does the source give for CC(=O)[O-].CC(=O)[O-].[Ba+2] [Ba] here?
A: The value was “not affected”.

B1: commercial fetuin: commercial fetuin purchased from Sigma, prepared by the Pederson Method (protein, UniProt P12763 19-359, looked up)
Alpha-2-HS-glycoprotein: IPLDPVAGYKEPACDDPDTEQAALAAVDYINKHLPRGYKHTLNQIDSVKVWPRRPTGEVYDIEIDTLETTCHVLDPTPLANCSVRQQTQHAVEGDCDIHVLKQDGQFSVLFTKCDSSPDSAEDVRKLCPDCPLLAPLNDSRVVHAVEVALATFNAESNGSYLQLVEISRAQFVPLPVSVSVEFAVAATDCIAKEVVDPTKCNLLAEKQYGFCKGSVIQKALGGEDVRVTCTLFQTQPVIPQPQPDGAEAEAPSAVPDAAGPTPSAAGPPVASVVVGPSVVAVPLPLHRAHYDLRHTFSGVASVESSSGEAFHVGKTPIVGQPSIPGGPVRLCPGRIRYFKI
Q: Which “apoptotic activity by method of preparation” value (LNCaP cells; Pederson Method (Sigma) vs modified Spiro method) does the source give for B1 here?
A: The value was “did not show apoptotic activity”.

B2: mature fetuin: fetuin isolated from mature bovine serum (protein, UniProt P12763 19-359, looked up)
Alpha-2-HS-glycoprotein: B1 Alpha-2-HS-glycoprotein
Q: For B2, which “apoptosis-inducing activity in LNCaP cells” value (LNCaP cells) is on record?
A: Its value is “no activity inducing apoptosis”.

B3: human fetuin: human fetuin (Alpha 2-HS glycoprotein) isolated from adult human serum (protein, UniProt P02765 19-300; P02765 341-367, looked up)
Alpha-2-HS-glycoprotein chain … 1: APHGPGLIYRQPNCDDPETEEAALVAIDYINQNLPWGYKHTLNQIDEVKVWPQQPSGELFEIEIDTLETTCHVLDPTPVARCSVRQLKEHAVEGDCDFQLLKLDGKFSVVYAKCDSSPDSAEDVRKVCQDCPLLAPLNDTRVVHAAKAALAAFNAQNNGSNFQLEEISRAQLVPLPPSTYVEFTVSGTDCVAKEATEAAKCNLLAEKQYGFCKATLSEKLGGAEVAVTCMVFQTQPVSSQPQPEGANEAVPTPVVDPDAPPSPPLGAPGLPPAGSPPDSHVL
Alpha-2-HS-glycoprotein chain … 2: TVVQPSVGAAAGPVVPPCPGRIRHFKV
Q: How did the “apoptosis-inducing activity in LNCaP cells” value (LNCaP cells) turn out when B3 was run?
A: The value was “fails to induce apoptosis”.
